Assay results published in paper PMC9195047 (The Journal of Experimental Medicine, 2022).

Assays:
[1] = molecular target: VEEV TC-83 structural proteins (capsid-p62-6K-E1) displayed on Expi293F cells (Venezuelan equine encephalitis virus, …, UniProt P05674, strain); assay: flow cytometry on cells
[2] = molecular target: CHIKV 181/25 structural proteins on infected Vero cells (Chikungunya virus, 181/25, UniProt Q88628, strain); assay: flow cytometry on cells

B1: hVEEV-63 (human anti-VEEV monoclonal antibody, IgG1) (antibody, V domains shown)
VH: QVQLVQSGAEVKKPGASVKVSCKSSGYTFTNYIIHWVRQAPGQRLEWMGWINAGNGNTKYSQKFQGRISVTRDTSASAAYMELSSLKSEDTALYYCATLQMDYGGNGDLDYWGQGTLVTVSS
VL: YELTQPPSVSVSPGQTARITCSGDALPKQYVYWYQQKPGQAPVLVIYKDSERPSGIPERFSGSSSGTTVTLTISGVQAEDDADYYCQAADSSNTEYVFGTGTKVTVL
B1: binds [1]; no binding (tested: 10 µg/ml) [2].
